Blank lines part the entries; values can stand above or below the molecule they belong to.
How the values were obtained:
UHRF1 = biological target: T1, UHRF1 (Homo sapiens, UniProt Q96T88); assay: microscale thermophoresis; format: binding; conditions: RED-NHS labelled protein, 1 µM; room temperature, 30 min
T1 sequence (Q96T88 1-793): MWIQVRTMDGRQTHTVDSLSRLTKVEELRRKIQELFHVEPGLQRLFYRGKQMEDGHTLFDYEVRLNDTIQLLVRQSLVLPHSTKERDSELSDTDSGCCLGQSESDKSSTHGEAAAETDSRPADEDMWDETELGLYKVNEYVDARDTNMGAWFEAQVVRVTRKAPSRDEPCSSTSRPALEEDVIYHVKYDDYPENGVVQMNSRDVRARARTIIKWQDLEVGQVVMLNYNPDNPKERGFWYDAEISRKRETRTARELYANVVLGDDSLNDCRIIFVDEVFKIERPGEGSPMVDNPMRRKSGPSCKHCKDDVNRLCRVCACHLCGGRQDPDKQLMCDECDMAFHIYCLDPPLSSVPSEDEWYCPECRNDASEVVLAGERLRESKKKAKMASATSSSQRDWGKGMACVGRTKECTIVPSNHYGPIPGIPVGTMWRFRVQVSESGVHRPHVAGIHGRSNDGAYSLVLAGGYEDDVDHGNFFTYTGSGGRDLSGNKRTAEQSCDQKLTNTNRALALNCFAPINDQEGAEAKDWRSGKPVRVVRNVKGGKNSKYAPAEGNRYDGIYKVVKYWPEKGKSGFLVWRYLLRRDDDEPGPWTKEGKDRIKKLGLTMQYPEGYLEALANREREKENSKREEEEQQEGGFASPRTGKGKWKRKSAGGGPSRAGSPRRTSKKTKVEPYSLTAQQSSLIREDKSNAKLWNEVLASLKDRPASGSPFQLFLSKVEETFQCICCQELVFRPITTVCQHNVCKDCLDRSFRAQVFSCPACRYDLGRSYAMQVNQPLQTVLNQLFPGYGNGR

[1] = biological target: T2, biotinylated SFRP5 protein (secreted frizzled-related protein 5) (UniProt Q5T4F7 30-317, biotin (biotinylated; site not stated)); assay: BLI
T2 chain: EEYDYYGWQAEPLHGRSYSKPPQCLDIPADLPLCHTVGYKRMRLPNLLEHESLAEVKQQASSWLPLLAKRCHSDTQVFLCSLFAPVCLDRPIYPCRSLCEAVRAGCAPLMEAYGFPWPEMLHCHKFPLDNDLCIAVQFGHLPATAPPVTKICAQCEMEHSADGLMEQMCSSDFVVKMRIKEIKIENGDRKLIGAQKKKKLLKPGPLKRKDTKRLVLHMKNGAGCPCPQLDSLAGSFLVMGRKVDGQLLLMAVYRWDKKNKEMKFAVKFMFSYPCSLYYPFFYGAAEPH

WNT5A protein = biological target: T3, WNT5A protein (UniProt P41221 62-380); assay: BLI; biotinylated SFRP5 immobilised on the biosensor (ForteBio Octet RED 96e); WNT5A in Assay Buffer at 0.156 to 5 uM; global fitting model; conditions: both partners purified
T3 construct: WNT5A protein
T3 sequence (looked up): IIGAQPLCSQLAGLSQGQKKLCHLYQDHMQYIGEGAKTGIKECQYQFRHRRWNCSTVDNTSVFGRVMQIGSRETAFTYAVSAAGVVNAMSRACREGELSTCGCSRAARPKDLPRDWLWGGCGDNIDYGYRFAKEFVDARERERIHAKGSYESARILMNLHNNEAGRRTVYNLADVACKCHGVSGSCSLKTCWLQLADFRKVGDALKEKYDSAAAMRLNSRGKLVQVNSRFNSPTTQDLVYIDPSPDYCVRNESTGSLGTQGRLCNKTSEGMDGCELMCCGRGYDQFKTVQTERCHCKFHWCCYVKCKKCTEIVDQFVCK

Kd (UHRF1): 10.2 µM
Molecule: Cc1nc(Nc2ncc(C(=O)Nc3cc(NC(=O)c4cccc(C(F)(F)F)c4)ccc3C)s2)cc(N2CCN(CCO)CC2)n1 [UM164]

Kd [1]: 0.0203 µM
B1: WNT5A protein (natural protein)
chain: T3 sequence (looked up)

Kd (WNT5A protein): 20.3 µM
B2: biotinylated SFRP5 protein (secreted frizzled-related protein 5) (natural protein, UniProt Q5T4F7 30-317, looked up)
chain: T2 chain
modifications: biotin (biotinylated; site not stated)
notes: secreted frizzled-related protein 5 (SFRP5)

— article PMC12041315, “UHRF1-mediated epigenetic reprogramming regulates glycolysis to promote progression of B-cell acute lymphoblastic leukemia” (Cell Death & Disease, 2025)
